Measured values published in US20210292396A1 (INTERNATIONAL AIDS VACCINE INITIATIVE, published 2021).

Tests used:
Assay in all cases: cell-based or functional assay
HIV Env of isolate CNE8 = HIV Env of isolate CNE8 (HIV)
HIV Env of isolate PVO.4 = HIV Env of isolate PVO.4 (HIV)
[1] = molecular target: HIV Env of isolate QH0692.42 (HIV)
[2] = molecular target: HIV Env of isolate Ce703010054_2A2 (HIV)
[3] = molecular target: HIV Env of isolate P1981_C5_3 (HIV)
[4] = molecular target: HIV Env of isolate CAP210.2.00.E8 (HIV)
[5] = molecular target: HIV Env of isolate 6480.v4.c25 (HIV)
[6] = molecular target: HIV Env of isolate 89-F1_2_25 (HIV)
[7] = molecular target: HIV Env of isolate 6240_08_TA5_4622 (HIV)
[8] = molecular target: HIV Env of isolate X1632_S2_B10 (HIV)
[9] = molecular target: HIV Env of isolate 6535.3 (HIV)
[10] = molecular target: HIV Env of isolate R1166.c01 (HIV)
[11] = molecular target: HIV Env of isolate BF1266.431a (HIV)
HIV Env of isolate CNE58 = HIV Env of isolate CNE58 (HIV)
[12] = molecular target: HIV Env of isolate ZM109F.PB4 (HIV)
[13] = molecular target: HIV Env of isolate RHPA4259.7 (HIV)
HIV Env of isolate CNE5 = HIV Env of isolate CNE5 (HIV)
[14] = molecular target: HIV Env of isolate 249M_B10 (HIV)
[15] = molecular target: HIV Env of isolate ZM214M.PL15 (HIV)
[16] = molecular target: HIV Env of isolate Q769.d22 (HIV)
[17] = molecular target: HIV Env of isolate 191084_B7-19 (HIV)
[18] = molecular target: HIV Env of isolate T257-31 (HIV)
[19] = molecular target: HIV Env of isolate Du156.12 (HIV)
[20] = molecular target: HIV Env of isolate BJOX015000.11.5 (HIV)
[21] = molecular target: HIV Env of isolate 6540.v4.c1 (HIV)
[22] = molecular target: HIV Env of isolate Ce1172_H1 (HIV)
HIV Env of isolate 263-8 = HIV Env of isolate 263-8 (HIV)
[23] = molecular target: HIV Env of isolate BJOX025000.01.1 (HIV)
[24] = molecular target: HIV Env of isolate 7030102001E5(Rev-) (HIV)
[25] = molecular target: HIV Env of isolate AC10.0.29 (HIV)
[26] = molecular target: HIV Env of isolate 0260.v5.c36 (HIV)
[27] = molecular target: HIV Env of isolate ZM197M.PB7 (HIV)
[28] = molecular target: HIV Env of isolate R2184.c04 (HIV)
[29] = molecular target: HIV Env of isolate ZM135M.PL10a (HIV)
[30] = molecular target: HIV Env of isolate BJOX009000.02.4 (HIV)
[31] = molecular target: HIV Env of isolate TRO.11 (HIV)
[32] = molecular target: HIV Env of isolate 6041.v3.c23 (HIV)
[33] = molecular target: HIV Env of isolate Ce2060_G9 (HIV)
[34] = molecular target: HIV Env of isolate 249M_B10 (HIV); remark: listed apart in the source
[35] = molecular target: HIV Env of isolate ZM249M.PL1 (HIV)
[36] = molecular target: HIV Env of isolate HIV-16055-2.3 (HIV)
[37] = molecular target: HIV Env of isolate HIV-0013095-2.11 (HIV)
[38] = molecular target: HIV Env of isolate 6540.v4.c1 (HIV); remark: listed apart in the source
[39] = molecular target: HIV Env of isolate T278-50 (HIV)
[40] = molecular target: HIV Env of isolate BJOX028000.10.3 (HIV)

B1: PGT-121 (antibody, V domains shown)
VH: QMQLQESGPGLVKPSETLSLTCSVSGASISDSYWSWIRRSPGKGLEWIGYVHKSGDTNYSPSLKSRVNLSLDTSKNQVSLSLVAATAADSGKYYCARTLHGRRIYGIVAFNEWFTYFYMDVWGNGTQVTVSS
VL: SDISVAPGETARISCGEKSLGSRAVQWYQHRAGQAPSLIIYNNQDRPSGIPERFSGSPDSPFGTTATLTITSVEAGDEADYYCHIWDSRVPTKWVFGGGTTLTVLG
HIV Env of isolate CNE8
  neutralization IC50: > 50 µg/mL
HIV Env of isolate PVO.4
  neutralization IC50: 0.098 µg/mL
[1]
  neutralization IC50: 0.302 µg/mL
[2]
  neutralization IC50: > 50 µg/mL
[3]
  neutralization IC50: 0.001 µg/mL
[4]
  neutralization IC50: 26.3 µg/mL
[5]
  neutralization IC50: 0.001 µg/mL
[6]
  neutralization IC50: > 50 µg/mL
[7]
  neutralization IC50: 0.033 µg/mL
[8]
  neutralization IC50: > 50 µg/mL
[9]
  neutralization IC50: 0.002 µg/mL
[10]
  neutralization IC50: > 50 µg/mL
[11]
  neutralization IC50: > 50 µg/mL
HIV Env of isolate CNE58
  neutralization IC50: > 50 µg/mL
[12]
  neutralization IC50: 8.64 µg/mL
[13]
  neutralization IC50: 0.015 µg/mL
HIV Env of isolate CNE5
  neutralization IC50: > 50 µg/mL
[14]
  neutralization IC50: > 50 µg/mL
[15]
  neutralization IC50: 0.46 µg/mL
[16]
  neutralization IC50: > 50 µg/mL
[17]
  neutralization IC50: 0.011 µg/mL
[18]
  neutralization IC50: > 50 µg/mL
[19]
  neutralization IC50: 0.004 µg/mL
[20]
  neutralization IC50: > 50 µg/mL
[21]
  neutralization IC50: > 50 µg/mL
[22]
  neutralization IC50: 0.011 µg/mL
HIV Env of isolate 263-8
  neutralization IC50: 0.648 µg/mL
[23]
  neutralization IC50: > 50 µg/mL
[24]
  neutralization IC50: 0.009 µg/mL
[25]
  neutralization IC50: 0.024 µg/mL
[26]
  neutralization IC50: 0.053 µg/mL
[27]
  neutralization IC50: > 50 µg/mL
[28]
  neutralization IC50: > 50 µg/mL
[29]
  neutralization IC50: 0.716 µg/mL
[30]
  neutralization IC50: 2.86 µg/mL
[31]
  neutralization IC50: 0.005 µg/mL

B2: ePGT121.15.H1.L1 (antibody, V domains shown)
VH: QMQLQESGPGLVKPGETLSLTCSVSGASISSSYWSWLRETPGKGLEWIGYTHHSGDTNYAPSLKSRVHLGLHPSKNQVSLSLTSVTAADTAVYYCARTLHGRRIYGVVAFNEWFTYFYWEVWGNGTQVTVSS
VL: SDISVAPGETVRISCGGESIGSRAVQWYQHRAGQAPKLIIYNNQDRPPGIPERFSGSPDIDFGTTATLTITNVEAGDEATYYCHIWDSRRPTNWVFGGGTTLTVL
HIV Env of isolate CNE8
  neutralization IC50: > 50 µg/mL
HIV Env of isolate PVO.4
  neutralization IC50: 0.0004 µg/mL
[1]
  neutralization IC50: 0.0008 µg/mL
[2]
  neutralization IC50: > 50 µg/mL
[3]
  neutralization IC50: 0.0014 µg/mL
[4]
  neutralization IC50: 0.0052 µg/mL
[5]
  neutralization IC50: 0.0012 µg/mL
[6]
  neutralization IC50: > 50 µg/mL
[7]
  neutralization IC50: 0.0022 µg/mL
[8]
  neutralization IC50: > 50 µg/mL
[9]
  neutralization IC50: 0.0003 µg/mL
[10]
  neutralization IC50: > 50 µg/mL
[11]
  neutralization IC50: > 50 µg/mL
HIV Env of isolate CNE58
  neutralization IC50: 0.0025 µg/mL
[12]
  neutralization IC50: 10.7 µg/mL
[13]
  neutralization IC50: 0.0003 µg/mL
HIV Env of isolate CNE5
  neutralization IC50: 15.8 µg/mL
[14]
  neutralization IC50: 0.0022 µg/mL
[15]
  neutralization IC50: 0.0006 µg/mL
[16]
  neutralization IC50: > 50 µg/mL
[17]
  neutralization IC50: 0.0009 µg/mL
[18]
  neutralization IC50: > 50 µg/mL
[19]
  neutralization IC50: 0.0001 µg/mL
[20]
  neutralization IC50: > 50 µg/mL
[21]
  neutralization IC50: > 50 µg/mL
[22]
  neutralization IC50: 0.0003 µg/mL
HIV Env of isolate 263-8
  neutralization IC50: 0.0044 µg/mL
[23]
  neutralization IC50: > 50 µg/mL
[24]
  neutralization IC50: 0.0002 µg/mL
[25]
  neutralization IC50: 0.0002 µg/mL
[26]
  neutralization IC50: 0.004 µg/mL
[27]
  neutralization IC50: > 50 µg/mL
[28]
  neutralization IC50: > 50 µg/mL
[29]
  neutralization IC50: 0.132 µg/mL
[30]
  neutralization IC50: 0.0046 µg/mL
[31]
  neutralization IC50: 0.0001 µg/mL
[32]
  neutralization (Table 6 value): 0.396
[33]
  neutralization (Table 6 value): 0.0102
[34]
  neutralization (Table 6 value): 0.00639
[35]
  neutralization (Table 6 value): 0.00404
[36]
  neutralization (Table 6 value): 1.07
[37]
  neutralization (Table 6 value): 1.07
[38]
  neutralization (Table 6 value): 0.249
[39]
  neutralization (Table 6 value): 0.0232
[40]
  neutralization (Table 6 value): 0.0278

B3: ePGT121.15.H6.L1 (antibody, V domains shown)
VH: QMQLQESGPGLVKPGETLSLTCSVSGASISSSYWSWLRETPGKGLEWIGYTHHSGDTNYAPSLKSRVHLGLHPSKNQVSLSLTSVTAADTAVYYCARTLHGRRIYGVVAFNEFFTYFYWEVWGKGTQVTVSS
VL: SDISVAPGETVRISCGGESIGSRAVQWYQHRAGQAPKLIIYNNQDRPPGIPERFSGSPDIDFGTTATLTITNVEAGDEATYYCHIWDSRRPTNWVFGGGTTLTVL
[32]
  neutralization (Table 6 value): 0.417
[33]
  neutralization (Table 6 value): 0.0369
[34]
  neutralization (Table 6 value): 0.0118
[35]
  neutralization (Table 6 value): 0.0127
[36]
  neutralization (Table 6 value): 0.635
[37]
  neutralization (Table 6 value): 0.635
[38]
  neutralization (Table 6 value): 0.612
[39]
  neutralization (Table 6 value): 0.0263
[40]
  neutralization (Table 6 value): 0.00171
